# From US20240192215A1
# What was measured:
# Human_IgG [1] = assay: microarray control spot; secondary antibody after B266-1 0.0016 ug/mL
# Full-length mouse IgG [2] = assay: as above
# Peptide_097 (human) = biological target: T1, Peptide_097 (human); assay: peptide microarray, secondary antibody only
# T1 sequence (peptide): FKKGQKVGEFSGANK
# Peptide_096 (human) = biological target: T2, Peptide_096 (human); assay: peptide microarray, secondary antibody only
# T2 sequence (peptide): FFKKGQKVGEFSGAN
# Peptide_092 (human) = biological target: T3, Peptide_092 (human); assay: peptide microarray, secondary antibody only
# T3 sequence (peptide): PTFQFFKKGQKVGEF
# Peptide_044 (human) = biological target: T4, Peptide_044 (human); assay: peptide microarray, secondary antibody only
# T4 sequence (peptide): FSATWCGPCKMIKPF
# Peptide_051 (human) = biological target: T5, Peptide_051 (human); assay: peptide microarray, secondary antibody only
# T5 sequence (peptide): PCKMIKPFFHSLSEK
# Human_IgG [3] = assay: microarray control spot; secondary antibody after B264 1 ug/mL
# Full-length mouse IgG [4] = assay: as above
# Human_IgG [5] = assay: microarray control spot; secondary antibody after B264 0.04 ug/mL
# Full-length mouse IgG [6] = assay: as above
# Human_IgG [7] = assay: microarray control spot; secondary antibody after B264 0.0016 ug/mL
# Full-length mouse IgG [8] = assay: as above
# Human_IgG [9] = assay: microarray control spot; secondary antibody after B266-1 0.2 ug/mL
# Full-length mouse IgG [10] = assay: as above
# Human_IgG [11] = assay: microarray control spot; secondary antibody after B264 5 ug/mL
# Full-length mouse IgG [12] = assay: as above
# Human_IgG [13] = assay: microarray control spot; secondary antibody after B266-1 0.04 ug/mL
# Full-length mouse IgG [14] = assay: as above
# Human_IgG [15] = assay: microarray control spot; secondary antibody after B266-1 1 ug/mL
# Full-length mouse IgG [16] = assay: as above
# Human_IgG [17] = assay: microarray control spot; secondary antibody after B266-1 5 ug/mL
# Full-length mouse IgG [18] = assay: as above
# Human_IgG [19] = assay: microarray control spot; secondary antibody after B264 0.2 ug/mL
# Full-length mouse IgG [20] = assay: as above
# Human_IgG [21] = assay: microarray control spot; secondary antibody only
# Full-length mouse IgG [22] = assay: microarray control spot; secondary antibody only
# Human_IgG [23] = assay: microarray control spot; secondary antibody after B264, head 0.08 ug (text 0.008 ug/mL)
# Full-length mouse IgG [24] = assay: as above
# Human_IgG [25] = assay: microarray control spot; secondary antibody after B266-1, head 0.08 ug (text 0.008 ug/mL)
# Full-length mouse IgG [26] = assay: as above
substance,measurement,setting,value
fluorescence-labeled secondary anti-mouse-IgG antibody (anti-mouse IgG(H+L) (Thermo 84545)),signal (blank-control = 1),Human_IgG [1],35.4
same,signal (blank-control = 1),Full-length mouse IgG [2],84.8
same,signal (blank-control = 1),Peptide_097 (human),1.34
same,signal (blank-control = 1),Peptide_096 (human),1.18
same,signal (blank-control = 1),Peptide_092 (human),2.28
same,signal (blank-control = 1),Peptide_044 (human),1.73
same,signal (blank-control = 1),Peptide_051 (human),0.47
same,signal (blank-control = 1),Human_IgG [3],20.8
same,signal (blank-control = 1),Full-length mouse IgG [4],24.5
same,signal (blank-control = 1),Human_IgG [5],48.1
same,signal (blank-control = 1),Full-length mouse IgG [6],69.5
same,signal (blank-control = 1),Human_IgG [7],45.7
same,signal (blank-control = 1),Full-length mouse IgG [8],74.5
same,signal (blank-control = 1),Human_IgG [9],49.6
same,signal (blank-control = 1),Full-length mouse IgG [10],71.4
same,signal (blank-control = 1),Human_IgG [11],6.7
same,signal (blank-control = 1),Full-length mouse IgG [12],7.16
same,signal (blank-control = 1),Human_IgG [13],49.7
same,signal (blank-control = 1),Full-length mouse IgG [14],79.7
same,signal (blank-control = 1),Human_IgG [15],52.8
same,signal (blank-control = 1),Full-length mouse IgG [16],65.4
same,signal (blank-control = 1),Human_IgG [17],35.8
same,signal (blank-control = 1),Full-length mouse IgG [18],47
same,signal (blank-control = 1),Human_IgG [19],36.3
same,signal (blank-control = 1),Full-length mouse IgG [20],46
same,signal (blank-control = 1),Human_IgG [21],46.6
same,signal (blank-control = 1),Full-length mouse IgG [22],54.6
same,signal (blank-control = 1),Human_IgG [23],52.6
same,signal (blank-control = 1),Full-length mouse IgG [24],76.3
same,signal (blank-control = 1),Human_IgG [25],47.9
same,signal (blank-control = 1),Full-length mouse IgG [26],74.6
